Patent publication US20200223906A1 (Adimab, published 2020)

B1: ADI-18999 (antibody, V domains shown)
VH: QVQLVQSGAEVKKPGSSVKVSCKASGGRFSSDAISWVRQAPGQGLEWMGGIIPIRGTPTYAQKFQGRVTIIADESTTTSYMEMSSLRSEDTAVYYCARPNYDILTGYNDAFDIWGQGTMVTVSS
VL: QSVLTQPRSVSGSPGQSVTISCTGTSSDVGGYNYVSWYQQHPGKVPRLMIYDVSKRPSGAPDRFSGSKSGNTASLTISGLQAEDEADYYCCSYAGGLYVFGTGTKLTVL
notes: full-length IgG
B2: ADI-18981 (antibody, V domains shown)
VH: EVQLQESGSRLVKPSQTLSLTCSVSGGSLNAGGYLWSWIRQPPGKGLEWVGYIYPSGTTYYNPSLQSRISISQDRSRNQFSLSVASVTAADTAVYYCARCGNEYGEVHPFDIWGQGTTVTVSS
VL: EIVLTQSPGTLSLSPGERATLSCRGSPIVGNNYLAWYQQKPGQAPRLLIYAASIRATGIPDRFSGSGSGTDFTLTISRLEPEDFAVYYCQQYGSSPWTFGQGTKVDIK
notes: full-length IgG; also called Antibody Number 329
B3: ADI-18982 (antibody, V domains shown)
VH: QVQLVQSGAEVKKPGASVKVSCKASGYIFTSYGVSWVRQAPGQGLKWMGWISGYNGNTNYDQKLQGRVTMTTDTSTSTAYMELRSLTSDDTAVYYCARDSFSETGTGFPDFWGQGTLVTVSS
VL: DIQMTQSPLSLPVTLGQPASISCRSSQSLEYSDGNTYLNWFQQRPGQSPRRLIYKVSNRDSGVPDRFSGSGSGTDFTLKISRVEAEDVGVYYCMQATHRPRTFGQGTKLEIK
notes: full-length IgG; also called Antibody Number 330
B4: ADI-19013 (antibody, V domains shown)
VH: QVQLVQSGAEVKKPGESLKISCKGSGYSFSSYWIGWVRQMPGKGLEWMGIIYPGDSDTRYSPSLQGQVTISGDKSISTAFLQWSSLKASDTAMYYCARPMTTQEGFDLWGQGTMVTVSS
VL: DIRLTQSPSSVSASVGDRVTITCRASQGISDWLAWYQQKPGKAPKLLIYAASSLQSGVPSRFSGSGSGTDFTLTISSLQPEDFATYYCQQTNSFLPLTFGGGTKVDIK
notes: full-length IgG; also called Antibody Number 361
B5: ADI-18984 (antibody, V domains shown)
VH: QVQLQESGPGLVKPSETLSLTCTVSGASVTTNTYYWTWIRQPPGKELEWIGYIHHTGNTHYNPSLESRLTMSLDTSRNQFSLNLRSATTADTAVYYCARGEHFAYWWGNWGQGALVTVSS
VL: DIRVTQSPSSVSASVGDRVTITCRASQGIARWLAWYQQKPGKAPKLLIYAASSLQGGVPSRFSGSGYGTDFTLTISSLQPEDFATYYCQQANSFPRTFGQGTKVEIK
notes: full-length IgG
B6: ADI-18990 (antibody, V domains shown)
VH: QVQLQESGPGRVKPSQTLSLTCTVSGVSVTINDYYWTWLRQSPGKGLEWIGNIYNSGSTYQNPSLQSRVTMSVDTAKNHFSLKLTSVTAADTAVYYCARDLGTANNYYFGMDVWGLGTTVTVSS
VL: DIVLTQSPATLSLSPGERATLSCRASQSVSTYLAWYQQKPGQAPRLLIYNGSNRVTGTPARFSGSGSGTDFTLTISSVEPEDFAVYYCQQRSNWPPYTFGQGTKVEIK
notes: full-length IgG
B7: ADI-19001 (antibody, V domains shown)
VH: EVQLVESGGGLVKPGRSLRLSCTASGFNFGDYAMSWFRQAPGKGLEWVGFIRSKTYRETREYAASVKGRFTMSRDDFNRIAYLQMNSLKTEDTAMYYCTRQDDFWSGHPYYFEYWGQGTLVTVSS
VL: QPVLTQPPSASGSPGQSVTISCTGTNSDVGSYNYVSWYQHHPGKAPKLIIYDVAKRPSGVPDRFSGSKSGNTASLTVSGLQAEDEADYYCSSYAGSNDLGVFGTGTKLTVL
notes: full-length IgG; also called Antibody Number 349
B8: ADI-19012 (antibody, V domains shown)
VH: EVQLVESGPGLVKPSGTLSLTCAVSGDSIVGSDWWSWIRQPPGKGLEWIGDIYHGGTTSYNPSLKSRVTMSVDKSKNQFSLKLTSVTAADTAVYYCARLSGNCSGGSCYSPFDHWGQGTLVTVSS
VL: DIQMTQSPSSLSASVGDRVTITCRASQTINGYLNWYQQRPGKAPKLLISAASSLQSGVPSRFRGSGYGTDFTLTISSLQPEDFATYFCQQSYNTVYTFGQGTKVDIK
notes: full-length IgG; also called Antibody Number 360
B9: ADI-19014 (antibody, V domains shown)
VH: EVQLVESGPRLVKPSQTLSLTCTVYGGSISGGQNYYSWVRQPPGKGLEWIGYIFSSGTTYYKPSLKSRISISFDTSKNQFSLNLASVTAADTAVYFCARSADIDIVWGSSLYMPLWGQGTLVTVSS
VL: EIVLTQSPGTLSLSPGQRATLSCRATHIVSNSYLAWYQQKPGQAPRLLIHGVSIRATGIPDRFSGSGSGTDFTLTISRLEPEDFAVYFCQQYGTSPWTFGQGTKLEIK
notes: full-length IgG; also called Antibody Number 362
B10: ADI-18998 (antibody, V domains shown)
VH: EVQLLESGPGLVKPSQTLSLTCTVSGGSINSIDYYWSWIRQPPGKGLEWIGYIYHSGSTHYRPSLKSRVTISLDKAKNEFSLSLTSVTAADTAVYFCASGPVGMATSNWFDPWGQGTLVTVSS
VL: QPVLTQPPSVSVTPGETARLPCEGDIVVTNSVHWYQQKPGQAPVLVVYYDSDRASGIPERFSGSNSGNTATLSISRVEAGDEADYYCQVWDSSTDHHVVFGGGTKLTVL
notes: full-length IgG; also called Antibody Number 346
B11: ADI-18995 (antibody, V domains shown)
VH: EVQLVESGPGLVKPSETLSLSCIVSGGSITSGDYYWSWLRQSPGKGLEWIGYIYHSGATFYTPSLRSRVTISTDTSKNQFSLRLSSVTAADTAVYYCASGPVGMATSNWFDPWGQGTLVTVSS
VL: SYELTQPPSVSVAPGKTATITCGGDIIRTNSVNWYQQKPGQAPLLLIYYDSDRPSGIPERFSASNSGNTATLTISRVEAGDEADYYCQVWDSGTDYHVVFGGGTKLTVQ
notes: full-length IgG; also called Antibody Number 343
B12: ADI-18989 (antibody, V domains shown)
VH: EVQLVESGGGLVQPGGSLRLSCAASGFSFNTYSMNWVRQAPGKGLEWLSFISSSSHTLYYADSVKGRFTVFRDNAKHSLFLQMNGLRDEDTAVYFCARSLGSGNYDNEDQTFYYYYGMDVWGQGTTVTVSS
VL: ETTLTQSPLSLPVTPGEPASISCRSSQSLLFHSNGHNYLDWYLQKPGQSPQLLIHLGSNRASGVPDRFSGSGSGTDFTLKISRVEPEDVGVYYCMQALQTPYTFGQGTKVEIK
notes: full-length IgG

What was measured:
[1] = target: RSV F protein of subtype A (strain A2) on recombinant mKate-RSV (respiratory syncytial virus subtype A …, UniProt P03420 26-574); test: cell-based or functional assay
[2] = target: RSV F protein of subtype B (18537) on recombinant mKate-RSV (respiratory syncytial virus subtype B …, UniProt P13843 26-574); test: cell-based or functional assay
[3] = target: T1, RSV F ectodomain stabilized in the postfusion conformation (F ΔFP), subtype A (respiratory syncytial virus subtype A, UniProt P03420 26-109; P03420 147-524); test: BLI (Octet), IgG on AHQ sensor, 100 nM antigen
T1 construct: extracellular domain; Trimer; also called Postfusion subtype A

[4] = target: T2, RSV F ectodomain stabilized in the postfusion conformation (F ΔFP), subtype B (respiratory syncytial virus subtype B, UniProt P13843 26-109; P13843 147-524); test: BLI (Octet), IgG on AHQ sensor, 100 nM antigen
T2 construct: extracellular domain; Trimer; also called Postfusion subtype B

| Binder | Neut IC50 subtype A [1] [µg/mL] | Neut IC50 subtype B [2] [µg/mL] | Kd [3] [nM] | Kd [4] [nM] |
| --- | --- | --- | --- | --- |
| B1 | 1.8 | 6.46 | 0.167 | 0.141 |
| B2 | > 10 | > 10 | – | 0.28 |
| B3 | 0.018 | 0.053 | 0.765 | 0.747 |
| B4 | 9.5 | > 10 | – | 0.583 |
| B5 | > 10 | > 10 | – | 0.659 |
| B6 | 0.58 | 0.845 | 0.294 | 0.252 |
| B7 | > 10 | 3.26 | – | 0.149 |
| B8 | > 10 | > 10 | – | 0.314 |
| B9 | 1.75 | > 10 | – | 0.277 |
| B10 | 0.055 | 0.458 | 12.4 | – |
| B11 | 0.043 | 0.125 | 12.3 | – |
| B12 | > 10 | > 10 | – | 0.377 |
